Experimental findings from paper PMC3834821 are described below.

For this data set, the target named is T1, GST-DAZAP1 (UniProt Q9JII5).
T1 sequence: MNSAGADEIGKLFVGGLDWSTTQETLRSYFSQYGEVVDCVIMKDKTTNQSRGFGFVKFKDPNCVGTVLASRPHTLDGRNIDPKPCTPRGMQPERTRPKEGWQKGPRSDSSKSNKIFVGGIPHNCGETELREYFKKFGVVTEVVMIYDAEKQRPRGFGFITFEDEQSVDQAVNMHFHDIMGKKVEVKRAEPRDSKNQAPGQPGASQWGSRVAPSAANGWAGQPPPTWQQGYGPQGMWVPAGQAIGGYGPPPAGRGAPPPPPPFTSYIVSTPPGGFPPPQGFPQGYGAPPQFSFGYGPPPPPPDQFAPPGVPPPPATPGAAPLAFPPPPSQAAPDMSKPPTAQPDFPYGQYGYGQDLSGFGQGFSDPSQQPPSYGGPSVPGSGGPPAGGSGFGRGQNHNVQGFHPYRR
Description: EMSA. As to conditions: 20 mM HEPES pH 7.6, 3 mM MgCl2, 40 mM KCl, 2 mM DTT, 5% glycerol, 5 mg/ml heparin; room temperature, 15 min; native 5% PAGE in 0.25x TBE; RNA 0.5-3.0 nM for Kd.

As for “AAGGUGAUAUUUAGUAUAUAGUGACAAUUUAUG [Pot1a-dA]”, the Kd (in general, the concentration at which binding is half-saturated) is 7.04 nM.

Consider “AAGGUGAUAUUUAGUAUAUAGUGACACGUAAACAUUUAUG [Pot1a-Wt]”, for which the Kd was determined as 7.82 nM. For the sequence “AAGGUGAUAUUUAUGACACGUAAACAUUUAUG [Pot1a-dE]”, the Kd came to 301 nM. Turning to AAGUGUGAUAUAAUUCACUAUAGAGGU [Crisp2-dB], the Kd came out at 81.8 nM.

Turning to “AAGUGUGAUAUAAUUCACUGGUAGUUUAUCAUAGAGGU [Crisp2-WtB]”, the Kd stood at 33.7 nM. In the case of “ACCUCCUAAUGGUAAGUACCCUACUUGUUCUUCAUUUCUU [Crem-Wt]”, the Kd was determined as 18.9 nM.

Turning to ACCUCCUAAUUUGUUCUUCAUUUCUU [Crem-dA], the Kd worked out at 169 nM.

Take “AUCAUAGAAUUUUAGUUUAUUCUGUGAACUUCAAAAUUGACU [Crisp2-dC]”: the equilibrium dissociation constant (Kd) is 70.3 nM. As for “AUCAUAGAGGUAGCAUUUUAGUUUAUUCUGUGAACUUCAAAAUUGACU [Crisp2-WtC]”, the Kd was determined as 15.1 nM.
